What was measured:
[1] = molecular target: the molecule itself; experiment: native MS; nanoflow electrospray of intact assemblies in 200 mM ammonium acetate pH 6.7-7.3 or 7.4; higher micromolar concentrations (COMA ~3 or ~6 uM; COMA-Nkp1-Nkp2 ~3 uM)
[2] = molecular target: T1, full-length Ctf19-Mcm21 (K. lactis) (Kluyveromyces lactis, UniProt Q6CRN7 1-270; Q6CVQ9 1-293); experiment: MST
T1 chain 1: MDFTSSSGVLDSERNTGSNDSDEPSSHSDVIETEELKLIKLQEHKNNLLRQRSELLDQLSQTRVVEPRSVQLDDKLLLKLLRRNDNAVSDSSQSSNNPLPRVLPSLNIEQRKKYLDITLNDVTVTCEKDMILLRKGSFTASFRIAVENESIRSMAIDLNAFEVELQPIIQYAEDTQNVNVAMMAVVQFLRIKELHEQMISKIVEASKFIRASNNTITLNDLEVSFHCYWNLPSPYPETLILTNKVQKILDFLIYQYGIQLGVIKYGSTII
T1 chain 2: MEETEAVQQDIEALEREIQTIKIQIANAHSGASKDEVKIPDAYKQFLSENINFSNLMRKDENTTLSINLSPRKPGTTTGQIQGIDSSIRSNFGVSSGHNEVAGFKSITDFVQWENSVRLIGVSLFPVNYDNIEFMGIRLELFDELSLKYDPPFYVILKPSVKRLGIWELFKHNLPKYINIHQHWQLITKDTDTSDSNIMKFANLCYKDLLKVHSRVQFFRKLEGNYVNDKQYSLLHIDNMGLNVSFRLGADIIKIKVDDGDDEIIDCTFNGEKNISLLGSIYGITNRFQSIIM

[3] = molecular target: T2, full-length Ctf19-Mcm21 (K. lactis) (Kluyveromyces lactis, UniProt Q6CRN7 1-270; Q6CVQ9 1-293); experiment: MST; Ctf19-Mcm21 labelled with NT-647-NHS on lysines, ~27 nM; dilution series of peptide; 22-25°C; ITC/MST buffer; three dilution series; conditions: both partners purified
T2 construct: Ctf19 of Kluyveromyces lactis; Mcm21 of Kluyveromyces lactis; for microscale thermophoresis it was labelled on lysine side chains with the red dye NT-647-NHS; also stands for the Ctf19-Mcm21 subassembly of COMA in nanoflow mass spectra; source: E. coli BL21 Rosetta 2(DE3)pLysS, co-expressed, purified
T2 sequence (looked up) 1: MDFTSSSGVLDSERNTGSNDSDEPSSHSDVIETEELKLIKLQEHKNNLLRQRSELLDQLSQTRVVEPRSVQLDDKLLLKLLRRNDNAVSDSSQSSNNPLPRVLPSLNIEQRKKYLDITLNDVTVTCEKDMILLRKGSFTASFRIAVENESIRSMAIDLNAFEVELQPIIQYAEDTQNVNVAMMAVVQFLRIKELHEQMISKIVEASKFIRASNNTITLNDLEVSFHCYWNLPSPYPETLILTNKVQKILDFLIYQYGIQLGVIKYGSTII
T2 sequence (looked up) 2: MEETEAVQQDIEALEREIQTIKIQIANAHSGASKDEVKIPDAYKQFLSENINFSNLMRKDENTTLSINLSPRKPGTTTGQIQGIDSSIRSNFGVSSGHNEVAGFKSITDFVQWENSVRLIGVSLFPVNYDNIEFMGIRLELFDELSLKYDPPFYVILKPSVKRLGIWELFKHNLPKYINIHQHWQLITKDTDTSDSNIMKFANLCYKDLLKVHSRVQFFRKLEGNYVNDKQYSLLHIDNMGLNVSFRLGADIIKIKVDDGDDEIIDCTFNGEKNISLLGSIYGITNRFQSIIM

B1: COMA-Nkp1-Nkp2 (K. lactis, full length) (complex, Kluyveromyces lactis)
chain 1: MDALKQRHLKLLYRQRGSASRTIDYDVVIEPELREDGDLVTDSQLTEQDDQSFPDIQVPSPDRVDDFDLNQGDGLMDKATANEDDIDHVIGDEVAAVNAPVETSDLVIDTTQFDSMTLSQLSTPLTSMATIDVLRRLLETVILVTIEERTSQFNRAGSARLRLKLKLEIKILTWFLHQSKEDLITISELNLSNNDLLYRLKQISLLKNSLSRSLLDVRSAISSYEGPNNALSEEQVALQNFKRINELILSQRIDTIINNNLPPDTSTFDTESKKGLLPTLKTLNESLQNTIG
chain 2: MDFTSSSGVLDSERNTGSNDSDEPSSHSDVIETEELKLIKLQEHKNNLLRQRSELLDQLSQTRVVEPRSVQLDDKLLLKLLRRNDNAVSDSSQSSNNPLPRVLPSLNIEQRKKYLDITLNDVTVTCEKDMILLRKGSFTASFRIAVENESIRSMAIDLNAFEVELQPIIQYAEDTQNVNVAMMAVVQFLRIKELHEQMISKIVEASKFIRASNNTITLNDLEVSFHCYWNLPSPYPETLILTNKVQKILDFLIYQYGIQLGVIKYGSTII
chain 3: MEETEAVQQDIEALEREIQTIKIQIANAHSGASKDEVKIPDAYKQFLSENINFSNLMRKDENTTLSINLSPRKPGTTTGQIQGIDSSIRSNFGVSSGHNEVAGFKSITDFVQWENSVRLIGVSLFPVNYDNIEFMGIRLELFDELSLKYDPPFYVILKPSVKRLGIWELFKHNLPKYINIHQHWQLITKDTDTSDSNIMKFANLCYKDLLKVHSRVQFFRKLEGNYVNDKQYSLLHIDNMGLNVSFRLGADIIKIKVDDGDDEIIDCTFNGEKNISLLGSIYGITNRFQSIIM
chain 4: MSKRYLDDVLSPDTGTSDSDSSIENLNADNYRIDIVNDNARRDDIDRIQSSNLNHEPPYNLEGVFAIDDDEHGDEMVRKDSDRRQDITEDNDDSFVPDITTPPRERKRVRFGINEKGGDEEFNNVSPWDFKRLIRKFYKEQLPDTYQIRNWKRPSKDMLTNFIDLIENNIELASEEVFKQYHQELNQLYPDSEEQAKLKDSLENKVFDTTYNIKKRLKRTKVPSKIWVDNLNMEYIYAKGESIKKRYKSELDRAEAIERQLIREEEHLKSLQEKGETQAKKRKQVLSKELSELSKTMHPSLSVALSNTFGLIKDDKMSNEIYQQDKIDFNLKLKTDFSKPLISEKEENSLNGLTNAMDNNRELVNEIFGKISALLQPKKNSNE
chain 5: MDLESEIIQLVRQNIRPKFPSLNDEQQARLDNALKYDVNYDILKKELVEYIDDWKRNEYYDVLTNIGDLQRLDLGNMLNGDGVSFPKLHSDLANLPRFRLIDNENEMDQSLLHKYDSLRTRLIEKCRAIELIRSATNTDVNYQDINSMLSVVELRQWRDEIQMEWKELAQNLELILKTWPDLTEEKRSKLLQLIDSSSLKSILHIKDNIE
chain 6: MLHEVLYKHLDGILVSRLYTEDQFVDLFSRTIPESNTVIASQLYKSYEENDQRIIEKIDKLIDNKLSLIRVELEREQIEDSISLEEVNKLLHSIDDMLQQHLNQLNIELDNKNTKLLKYAMELSDIEAIDTSMYDNVAKLITDMETNQPSS
notes: Ame1 of Kluyveromyces lactis; Ctf19 of Kluyveromyces lactis; Mcm21 of Kluyveromyces lactis; N-terminal SNA residual; Okp1 of Kluyveromyces lactis; Nkp1 of Kluyveromyces lactis; Nkp2 of Kluyveromyces lactis; source: E. coli BL21 Rosetta 2(DE3)pLysS, reconstituted, purified (SEC); not shown: polyhistidine, N-terminal, cleaved; copies: + + + + +
stoichiometry N [1]: 2

B2: Okp1 peptide variant N330A (peptide, UniProt Q6CJY0 318-337, looked up)
peptide: SNEIYQQDKIDFALKLKTDF
notes: source: synthetic peptide (Protein Chemistry core facility, IMP, Vienna)
Kd [2]: 5.51 µM | binding result [3]: binds

SNEIYQQDKIDANLKLKTDF (synthetic peptide; terminal chemistry not stated) [F329A]
Kd [2]: 25.3 µM

SNEIYQQDKIAANLKLKTDF (synthetic peptide; terminal chemistry not stated) [D328A-F329A]
Kd [2]: 64 µM

SNEIYQQDKIDFNLPLKTDF (synthetic peptide; terminal chemistry not stated) [K332P]
Kd [2]: 9.75 µM

— paper PMC5709738 (The EMBO Journal, 2017)
